Laboratory results published in paper PMC12104086 (2025).

What was measured:
Assay in all cases: SPR
[1] = target: recombinant human histone H3 (human, UniProt P68431 1-136)
[2] = target: T1, recombinant human alphavbeta3 integrin (human, UniProt P06756 31-1048; P05106 27-718)
T1 chain 1: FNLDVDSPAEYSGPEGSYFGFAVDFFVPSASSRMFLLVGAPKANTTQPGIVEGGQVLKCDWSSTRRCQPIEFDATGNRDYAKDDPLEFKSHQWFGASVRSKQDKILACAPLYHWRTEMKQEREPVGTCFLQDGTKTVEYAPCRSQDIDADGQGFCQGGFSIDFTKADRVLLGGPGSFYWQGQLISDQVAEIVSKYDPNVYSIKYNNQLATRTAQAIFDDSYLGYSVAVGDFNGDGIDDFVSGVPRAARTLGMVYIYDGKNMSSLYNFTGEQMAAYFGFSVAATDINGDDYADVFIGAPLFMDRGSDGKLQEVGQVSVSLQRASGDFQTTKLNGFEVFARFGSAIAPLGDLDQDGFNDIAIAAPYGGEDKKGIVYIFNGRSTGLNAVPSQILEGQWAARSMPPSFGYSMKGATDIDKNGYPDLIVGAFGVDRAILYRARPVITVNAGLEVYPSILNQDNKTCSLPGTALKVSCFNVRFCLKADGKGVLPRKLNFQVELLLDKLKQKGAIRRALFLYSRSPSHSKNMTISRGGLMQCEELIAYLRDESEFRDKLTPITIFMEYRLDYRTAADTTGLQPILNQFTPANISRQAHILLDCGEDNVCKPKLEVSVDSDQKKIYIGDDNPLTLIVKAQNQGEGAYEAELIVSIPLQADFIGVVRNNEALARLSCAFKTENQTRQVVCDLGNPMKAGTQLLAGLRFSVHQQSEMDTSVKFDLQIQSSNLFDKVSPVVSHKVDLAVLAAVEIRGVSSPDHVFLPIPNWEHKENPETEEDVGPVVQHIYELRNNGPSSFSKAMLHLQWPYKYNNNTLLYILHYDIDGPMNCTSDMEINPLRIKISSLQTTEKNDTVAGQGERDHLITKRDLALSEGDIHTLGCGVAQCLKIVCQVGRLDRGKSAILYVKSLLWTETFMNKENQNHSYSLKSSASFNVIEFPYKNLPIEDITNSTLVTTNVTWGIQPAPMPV
T1 chain 2: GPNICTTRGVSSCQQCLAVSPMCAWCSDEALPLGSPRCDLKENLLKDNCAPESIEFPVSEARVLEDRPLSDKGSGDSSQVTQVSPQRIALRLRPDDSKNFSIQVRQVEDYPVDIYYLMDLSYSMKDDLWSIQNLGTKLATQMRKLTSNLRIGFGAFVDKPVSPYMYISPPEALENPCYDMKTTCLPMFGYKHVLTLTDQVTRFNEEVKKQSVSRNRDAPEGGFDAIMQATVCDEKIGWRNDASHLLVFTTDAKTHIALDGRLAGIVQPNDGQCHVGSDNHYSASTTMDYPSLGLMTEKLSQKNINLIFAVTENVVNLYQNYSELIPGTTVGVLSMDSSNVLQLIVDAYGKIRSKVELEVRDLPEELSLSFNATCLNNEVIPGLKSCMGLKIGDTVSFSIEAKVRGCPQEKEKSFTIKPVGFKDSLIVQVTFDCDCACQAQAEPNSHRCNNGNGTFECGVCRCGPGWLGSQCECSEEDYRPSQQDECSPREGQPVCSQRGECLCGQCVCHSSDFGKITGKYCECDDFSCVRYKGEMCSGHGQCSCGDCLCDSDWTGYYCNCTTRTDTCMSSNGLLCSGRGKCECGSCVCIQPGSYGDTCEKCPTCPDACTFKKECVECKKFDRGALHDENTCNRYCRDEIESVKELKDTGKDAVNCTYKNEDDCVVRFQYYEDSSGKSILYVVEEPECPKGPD

[3] = target: T2, recombinant mouse cold-inducible RNA-binding protein (mouse, UniProt P60824 1-172)
T2 chain: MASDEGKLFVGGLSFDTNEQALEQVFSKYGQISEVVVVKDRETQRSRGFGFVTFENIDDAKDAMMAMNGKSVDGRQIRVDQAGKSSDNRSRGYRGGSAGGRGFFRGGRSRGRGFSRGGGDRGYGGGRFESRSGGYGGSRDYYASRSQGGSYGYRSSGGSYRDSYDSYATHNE

[4] = target: T3, recombinant human high mobility group box 1 (human, UniProt P09429 1-215)
T3 chain: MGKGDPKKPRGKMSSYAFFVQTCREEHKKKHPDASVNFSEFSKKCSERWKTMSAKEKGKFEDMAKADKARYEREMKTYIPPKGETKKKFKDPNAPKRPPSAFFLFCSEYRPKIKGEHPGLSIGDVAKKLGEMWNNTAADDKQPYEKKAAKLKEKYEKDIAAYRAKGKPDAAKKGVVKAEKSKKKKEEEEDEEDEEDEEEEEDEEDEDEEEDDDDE

B1: opsonic peptide 18 (peptide)
peptide: GNFNSSNIMKTCLQNRGD
Kd [1]: 2.1 nM
Kd [2]: 1.1 nM
Kd [3]: 1.5 nM
Kd [4]: 3.9 nM
